# Test results taken from article PMC9887883, “A family of C. elegans VASA homologs control Argonaute pathway specificity and promote transgenerational silencing”.
# Target: T1, GLH-1(DQAD) (Caenorhabditis elegans, UniProt P34689 1-763, E500Q)
# T1 sequence: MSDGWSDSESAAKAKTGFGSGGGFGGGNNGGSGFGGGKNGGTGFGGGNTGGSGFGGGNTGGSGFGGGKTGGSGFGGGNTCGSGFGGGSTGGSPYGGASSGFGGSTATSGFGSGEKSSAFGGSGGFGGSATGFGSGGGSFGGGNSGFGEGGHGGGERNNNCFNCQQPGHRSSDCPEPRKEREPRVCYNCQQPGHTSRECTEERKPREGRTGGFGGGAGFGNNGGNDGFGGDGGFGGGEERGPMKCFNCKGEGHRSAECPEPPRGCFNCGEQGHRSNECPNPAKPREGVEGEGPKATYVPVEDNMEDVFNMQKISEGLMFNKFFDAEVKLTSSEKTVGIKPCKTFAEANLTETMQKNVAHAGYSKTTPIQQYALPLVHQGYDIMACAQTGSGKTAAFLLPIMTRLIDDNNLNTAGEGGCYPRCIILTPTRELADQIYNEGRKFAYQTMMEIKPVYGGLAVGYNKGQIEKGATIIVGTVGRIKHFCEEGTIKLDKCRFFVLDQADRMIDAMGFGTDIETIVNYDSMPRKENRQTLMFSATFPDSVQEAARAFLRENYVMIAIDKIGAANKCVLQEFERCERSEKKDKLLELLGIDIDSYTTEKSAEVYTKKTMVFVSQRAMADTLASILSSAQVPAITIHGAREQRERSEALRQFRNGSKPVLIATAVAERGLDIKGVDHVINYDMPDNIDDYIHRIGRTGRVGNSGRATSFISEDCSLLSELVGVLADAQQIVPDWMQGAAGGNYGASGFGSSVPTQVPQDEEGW
# Assay: EMSA; 2 mM ATP, 2 mM MgCl2; 10 uM protein, 2 uM RNA; strong ATP-dependent binding; 25 mM HEPES pH 7.4, 150 mM NaCl, 2 mM MgCl2, +/- 2 mM ATP, 30 min at RT; native 8% PAGE in TBE, cold room
# Settings: protein: recombinant; tags: FLAG; label: 5'-Cy3 (Methods); single strand
binder,measurement,value
GUCAAAGAUAGCCUUGACCUUG (ssRNA) [22-nt ssRNA oligo],binding result,binds
